Results reported in article PMC11508082.

Target: T1, PdhR-his (Escherichia coli O157:H7 (EHEC) TUV93-0?) (UniProt P0ACM1)
T1 sequence: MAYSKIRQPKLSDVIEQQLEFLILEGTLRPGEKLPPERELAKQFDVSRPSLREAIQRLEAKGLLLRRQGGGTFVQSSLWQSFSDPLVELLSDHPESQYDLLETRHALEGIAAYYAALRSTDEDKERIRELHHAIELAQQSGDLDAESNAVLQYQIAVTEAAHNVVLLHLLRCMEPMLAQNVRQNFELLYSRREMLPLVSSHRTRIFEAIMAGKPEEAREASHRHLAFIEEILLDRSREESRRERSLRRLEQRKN
Assay: EMSA

Row | Sequence | binding
1 | GGTTCCGATAGAAAGTCCTGGAACAACCGGACCAAAAAGAAAAACCTACCGAGTTGGTAATGGTATTGTGGGACAGTCTAATATCTGGAACGAAATGATCATGAGGCGGAAAAAGGAGAGTTA (double strand) [grlA promoter probe] | no binding
2 | TGTGCACAGTTTCATGATTTCAATCAAAACCTGTATGGACATAAGGTGAATACTTTGTTACTTTAGCGTCACAGACATGAAATTGGTAAGACCAATTGACTTCGGCAAGTGGCTTAAGACAGGAACTCATGGCCTACAGCAAAATCCGCCAACCAAAACTCTCCGATGTGATTGAGCAGC (double strand) [PpdhR promoter probe] | binds
